Reference: publication PMC10817169, “The universal suppressor mutation restores membrane budding defects in the HSV-1 nuclear egress complex by stabilizing the oligomeric lattice” (PLOS Pathogens, 2024)
Substitutions are numbered along the chain they refer to. In names and notes the source's numbering stands.

T1: UL31 1-306 (wild type) (HSV-1, UniProt P10215 1-306)
T1 construct: also called WT UL31; UL31 chain of NEC220
T1 sequence: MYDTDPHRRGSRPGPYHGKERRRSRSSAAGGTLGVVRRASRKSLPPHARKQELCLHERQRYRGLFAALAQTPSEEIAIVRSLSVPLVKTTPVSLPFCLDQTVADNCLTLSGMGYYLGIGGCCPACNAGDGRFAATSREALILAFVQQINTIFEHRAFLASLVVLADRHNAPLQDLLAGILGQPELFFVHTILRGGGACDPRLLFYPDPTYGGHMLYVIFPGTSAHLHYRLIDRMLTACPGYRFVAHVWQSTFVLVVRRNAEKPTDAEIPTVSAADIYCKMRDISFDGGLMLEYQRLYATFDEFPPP

T2: UL31 1-306 R229L_(UL31) (HSV-1, UniProt P10215 1-306, R229L)
T2 construct: also called SUP_(UL31); UL31 chain of NEC220-SUP_(UL31)
T2 sequence: T1 sequence with R229L

B1: UL34 15-185 D35A_(UL34)/E37A_(UL34) (domain or fragment)
chain: AFEGLVQRIRLIVPSTLRGGAGAAGPYSPSSLPSRCAFQFHGHDGSDESFPIEYVLRLMNDWAEVPCNPYLRIQNTGVSVLFQGFFHRPHNAPGGAITPERTNVILGSTETTGLSLGDLDTIKGRLGLDARPMMASMWISCFVRMPRVQLAFRFMGPEDAGRTRRILCRAA
notes: also called DN_(UL34); UL34 chain of NEC185Δ50-DN_(UL34)/SUP_(UL31); not shown: GST, N-terminal, cleaved
B2: NEC185Δ50-SUP_(UL31) (complex)
chain 1: QELCLHERQRYRGLFAALAQTPSEEIAIVRSLSVPLVKTTPVSLPFCLDQTVADNCLTLSGMGYYLGIGGCCPACNAGDGRFAATSREALILAFVQQINTIFEHRAFLASLVVLADRHNAPLQDLLAGILGQPELFFVHTILRGGGACDPRLLFYPDPTYGGHMLYVIFPGTSAHLHYLLIDRMLTACPGYRFVAHVWQSTFVLVVRRNAEKPTDAEIPTVSAADIYCKMRDISFDGGLMLEYQRLYATFDEFPPP
chain 2: B1 chain with A21D, A23E
notes: also called NEC-SUP_(UL31) crystallization construct; source: E. coli BL21(DE3) LoBSTr, co-expressed, purified (Ni Sepharose, Glutathione Sepharose, tags cleaved, Talon, Superdex 75)
B3: UL34 15-185 (domain or fragment)
chain: B1 chain with A21D, A23E
notes: also called UL34 chain of NEC185Δ50-SUP_(UL31); not shown: GST, N-terminal, cleaved
B4: NEC185Δ50-DN_(UL34)/SUP_(UL31) (complex)
chain 1: B2 chain 1
chain 2: B1 chain
notes: also called NEC-DN_(UL34)/SUP_(UL31) crystallization construct; NEC185Δ50-DN34/SUP31; source: E. coli BL21(DE3) LoBSTr, co-expressed, purified (Ni Sepharose, Glutathione Sepharose, tags cleaved, Talon, Superdex 75)
B5: UL34 1-220 (wild type) (domain or fragment)
chain: MAGLGKPYTGHPGDAFEGLVQRIRLIVPSTLRGGDGEAGPYSPSSLPSRCAFQFHGHDGSDESFPIEYVLRLMNDWAEVPCNPYLRIQNTGVSVLFQGFFHRPHNAPGGAITPERTNVILGSTETTGLSLGDLDTIKGRLGLDARPMMASMWISCFVRMPRVQLAFRFMGPEDAGRTRRILCRAAEQAITRRRRTRRSREAYGAEAGLGVAGTGFRARGD
notes: also called UL34 chain of NEC220; not shown: GST, N-terminal, cleaved
B6: NEC220-DN_(UL34)/SUP_(UL31) (complex)
chain 1: T1 sequence with R229L
chain 2: B5 chain with D35A, E37A
notes: also called NEC-DN_(UL34)/SUP_(UL31)
B7: NEC220-SUP_(UL31) (complex)
chain 1: T1 sequence with R229L
chain 2: B5 chain
notes: also called NEC-SUP_(UL31)
B8: NEC220 (wild-type HSV-1 nuclear egress complex, UL31 1-306 with UL34 1-220) (complex)
chain 1: T1 sequence
chain 2: B5 chain
B9: UL34 1-220 K137A_(UL34)/R139A_(UL34) (domain or fragment)
chain: B5 chain with K137A, R139A
notes: also called UL34 chain of NEC220-K137A_(UL34)/R139A_(UL34); not shown: GST, N-terminal, cleaved
B10: UL34 1-220 R139A_(UL34) (domain or fragment)
chain: B5 chain with R139A
notes: also called UL34 chain of NEC220-R139A_(UL34); not shown: GST, N-terminal, cleaved
B11: UL34 1-220 D35A_(UL34)/E37A_(UL34) (domain or fragment)
chain: B5 chain with D35A, E37A
notes: also called DN_(UL34); UL34 chain of NEC220-DN_(UL34)/SUP_(UL31); not shown: GST, N-terminal, cleaved
B12: UL34 1-220 K137A_(UL34) (domain or fragment)
chain: B5 chain with K137A
notes: also called UL34 chain of NEC220-K137A_(UL34); not shown: GST, N-terminal, cleaved
B13: UL31 51-306 R229L (SUP_(UL31)Δ50-306) (domain or fragment)
chain: B2 chain 1
notes: also called R229L_(UL31)Δ50-306; UL31 chain of NEC185Δ50-SUP_(UL31)

Assays:
[1] = target: B13; assay: crystal structure; conditions: both partners purified
[2] = target: the molecule itself; assay: crystal structure
[3] = target: T1, UL31 1-306 (wild type); assay: cryo-EM structure; cryoET with sub-tomographic averaging of membrane-bound coats; 1 mg/mL NEC with 400 and 800 nm LUVs (POPC:POPS:POPA = 3:1:1), 30 min on ice; conditions: both partners purified
[4] = target: the molecule itself; assay: as above
[5] = target: T1, UL31 1-306 (wild type); assay: SEC; co-expressed and co-purified UL31/UL34, tags cleaved, equimolar amounts loaded on Superdex 75 10/300 in 20 mM Na HEPES pH 7.0, 100 mM NaCl, 1 mM TCEP, 4°C; fractions analysed by SDS-PAGE; conditions: both partners purified
[6] = target: T2, UL31 1-306 R229L_(UL31); assay: as above; conditions: both partners purified
[7] = target: T2, UL31 1-306 R229L_(UL31); assay: cryo-EM structure; cryoET with sub-tomographic averaging of membrane-bound coats; 1 mg/mL NEC with 400 and 800 nm LUVs (POPC:POPS:POPA = 3:1:1), 30 min on ice; conditions: both partners purified

B1: binds [1].

For B2, the “stoichiometry N” value [2] was 6.

B3: binds [1]; binds [2].

B4: binds [2].

B5: binds [3].

B6: binds [4].

B7: binds [4].

B8: binds [4].

B9: binds [5]; binds [6].

B10: binds [5].

B11: binds [7].

B12: binds [5]; binds [6].

B13: binds [2].
